Results as given in patent US20240376196A1 (HEFEI TG IMMUNOPHARMA, published 2024).

Legend:
[1] = molecular target: T1, human CD112 extracellular region His tag fusion protein (human, UniProt Q92692 32-360); assay: competition ELISA, CD112-His coated, blocked ligand TIGIT-Biotin, HRP-streptavidin, OD450
T1 construct: Bought from Acro; only its extracellular domain stood in the assay; also called CD112-His; CD112 extracellular domain His tag fusion protein; not shown: His tag
T1 sequence: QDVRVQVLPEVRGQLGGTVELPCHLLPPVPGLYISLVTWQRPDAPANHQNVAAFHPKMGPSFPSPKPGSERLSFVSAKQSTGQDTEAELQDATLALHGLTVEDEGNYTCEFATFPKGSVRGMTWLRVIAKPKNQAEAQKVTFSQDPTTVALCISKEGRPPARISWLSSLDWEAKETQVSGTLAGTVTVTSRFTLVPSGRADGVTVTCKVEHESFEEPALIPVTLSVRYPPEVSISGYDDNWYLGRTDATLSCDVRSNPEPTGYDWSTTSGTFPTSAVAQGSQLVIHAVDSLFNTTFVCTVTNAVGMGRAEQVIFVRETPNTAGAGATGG
Procedure: (§1) The ELISA experiment was used to determine the blocking characteristic of the murine antibody CD112 9G11 antibody.
(§2) The human CD112-His protein (purchased from Acro) was diluted to 2 μg/ml with PBS buffer and added to a 96-well plate in a volume of 100 μl/well and left overnight at 4° C. The PBS buffer solution was sucked off from the 96-well plate. The plate was washed 6 times with PBST (pH 7.2, PBS containing 0.1 vol % of Tween 20) buffer solution. 200 μL of PBS containing 10% BSA was added per well and incubated at 37° C. for 2 hours for blocking. The blocking solution was removed and the plate was washed 6 times with PBST. […] The reaction system was removed. The plate was washed 6 times with PBST. 100 μL of HRP (horseradish peroxidase)-labeled Streptavidin secondary (purchased from Southern Biotech) antibody diluted with PBST containing 0.05% BSA (diluted at 1:5000) per well and incubated for 1 h at 37° C. The plate was washed 6 times with PBST, and 80 μL of TMB (tetramethylbenzidine) was added per well. After 3 min of incubation at room temperature, 80 μL of 4M sulfuric acid was added per well to terminate the reaction. The absorbance was read at […] with a microplate reader.

[2] = molecular target: T1, human CD112 extracellular region His …; assay: competition ELISA, CD112-His coated, blocked ligand CD226-Biotin, HRP-streptavidin, OD450
Procedure: as §1, §2

[3] = molecular target: T1, human CD112 extracellular region His …; assay: competition ELISA, CD112-His coated, blocked ligand CD112R-Fc-Biotin, HRP-streptavidin, OD450
Procedure: as §1, §2

IC50 (read off the curve) [1]: ~0.5 µg/mL
IC50 (read off the curve) [2]: ~6 µg/mL
IC50 (read off the curve) [3]: ~0.5 µg/mL
B1: murine monoclonal antibody 9G11 (antibody, mouse IgG2a, kappa)
heavy: DVKLVESGGGLVKLGGSLKLSCAASGFTFSSYYMSWVRQTPEKRLELVAAINSQGGSTYYPDTVKGRFTISRDNAKNTLYLQMSSLKSEDTGLYYCARSDYDWAWFAYWGQGTLVTVSAAKTTAPSVYPLAPVCGDTTGSSVTLGCLVKGYFPEPVTLTWNSGSLSSGVHTFPAVLQSDLYTLSSSVTVTSSTWPSQSITCNVAHPASSTKVDKKIEPRGPTIKPCPPCKCPAPNLLGGPSVFIFPPKIKDVLMISLSPIVTCVVVDVSEDDPDVQISWFVNNVEVHTAQTQTHREDYNSTLRVVSALPIQHQDWMSGKEFKCKVNNKDLPAPIERTISKPKGSVRAPQVYVLPPPEEEMTKKQVTLTCMVTDFMPEDIYVEWTNNGKTELNYKNTEPVLDSDGSYFMYSKLRVEKKNWVERNSYSCSVVHEGLHNHHTTKSFSRTPGK
light: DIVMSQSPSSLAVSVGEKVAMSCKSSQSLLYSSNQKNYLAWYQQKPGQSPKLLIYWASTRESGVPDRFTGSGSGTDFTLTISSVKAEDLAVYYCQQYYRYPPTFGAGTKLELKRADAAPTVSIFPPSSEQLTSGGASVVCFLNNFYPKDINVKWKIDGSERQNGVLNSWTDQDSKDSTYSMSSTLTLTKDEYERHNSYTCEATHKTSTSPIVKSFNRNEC
notes: also called 9G11 antibody; CD112 murine antibody 9G11
